Measurements published in the supplement of paper PMC10065799, “High-throughput profiling of sequence recognition by tyrosine kinases and SH2 domains using bacterial peptide display” (eLife, 2023).

Columns and labels:
Fyn = Fyn (UniProt P06241); assay: phosphorylation enrichment, bacterial display (enrichment ratio); higher = better substrate or ligand; peptides without Tyr show the background
AncSZ = assay: as above
FGFR3 = FGFR3 (UniProt P22607); assay: as above
MERTK = MERTK (UniProt Q12866); assay: as above
c-Src = assay: as above
EPHB1 = EPHB1 (UniProt P54762); assay: as above
Sequence of EPHB1 (P54762 whole entry, looked up): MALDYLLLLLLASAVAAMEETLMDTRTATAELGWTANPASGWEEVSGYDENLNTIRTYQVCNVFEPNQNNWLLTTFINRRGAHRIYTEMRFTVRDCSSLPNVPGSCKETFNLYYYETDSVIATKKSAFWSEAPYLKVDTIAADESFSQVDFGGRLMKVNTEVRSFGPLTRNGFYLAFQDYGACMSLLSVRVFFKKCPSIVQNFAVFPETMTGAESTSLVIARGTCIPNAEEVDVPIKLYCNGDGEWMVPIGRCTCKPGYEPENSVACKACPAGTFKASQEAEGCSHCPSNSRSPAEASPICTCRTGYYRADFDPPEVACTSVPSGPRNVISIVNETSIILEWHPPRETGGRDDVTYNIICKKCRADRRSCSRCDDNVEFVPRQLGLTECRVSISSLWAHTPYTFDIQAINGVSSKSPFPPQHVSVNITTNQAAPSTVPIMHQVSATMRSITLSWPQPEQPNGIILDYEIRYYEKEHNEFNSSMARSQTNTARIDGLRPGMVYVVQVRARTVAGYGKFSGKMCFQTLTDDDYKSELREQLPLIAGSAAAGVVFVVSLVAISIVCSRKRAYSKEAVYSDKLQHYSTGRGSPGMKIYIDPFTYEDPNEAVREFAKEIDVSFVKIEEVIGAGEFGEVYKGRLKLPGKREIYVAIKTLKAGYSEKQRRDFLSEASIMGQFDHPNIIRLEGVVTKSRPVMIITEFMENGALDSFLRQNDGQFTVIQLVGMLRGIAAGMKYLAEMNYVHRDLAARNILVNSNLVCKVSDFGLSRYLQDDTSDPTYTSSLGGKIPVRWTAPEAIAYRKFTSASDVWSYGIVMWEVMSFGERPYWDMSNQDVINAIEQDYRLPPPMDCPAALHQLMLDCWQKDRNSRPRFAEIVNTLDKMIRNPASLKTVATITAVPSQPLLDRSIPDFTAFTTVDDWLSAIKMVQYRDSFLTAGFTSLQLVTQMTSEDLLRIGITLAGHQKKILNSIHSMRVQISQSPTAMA

Jak2 = Jak2 (UniProt O60674); assay: as above
Sequence of Jak2 (O60674 whole entry, looked up): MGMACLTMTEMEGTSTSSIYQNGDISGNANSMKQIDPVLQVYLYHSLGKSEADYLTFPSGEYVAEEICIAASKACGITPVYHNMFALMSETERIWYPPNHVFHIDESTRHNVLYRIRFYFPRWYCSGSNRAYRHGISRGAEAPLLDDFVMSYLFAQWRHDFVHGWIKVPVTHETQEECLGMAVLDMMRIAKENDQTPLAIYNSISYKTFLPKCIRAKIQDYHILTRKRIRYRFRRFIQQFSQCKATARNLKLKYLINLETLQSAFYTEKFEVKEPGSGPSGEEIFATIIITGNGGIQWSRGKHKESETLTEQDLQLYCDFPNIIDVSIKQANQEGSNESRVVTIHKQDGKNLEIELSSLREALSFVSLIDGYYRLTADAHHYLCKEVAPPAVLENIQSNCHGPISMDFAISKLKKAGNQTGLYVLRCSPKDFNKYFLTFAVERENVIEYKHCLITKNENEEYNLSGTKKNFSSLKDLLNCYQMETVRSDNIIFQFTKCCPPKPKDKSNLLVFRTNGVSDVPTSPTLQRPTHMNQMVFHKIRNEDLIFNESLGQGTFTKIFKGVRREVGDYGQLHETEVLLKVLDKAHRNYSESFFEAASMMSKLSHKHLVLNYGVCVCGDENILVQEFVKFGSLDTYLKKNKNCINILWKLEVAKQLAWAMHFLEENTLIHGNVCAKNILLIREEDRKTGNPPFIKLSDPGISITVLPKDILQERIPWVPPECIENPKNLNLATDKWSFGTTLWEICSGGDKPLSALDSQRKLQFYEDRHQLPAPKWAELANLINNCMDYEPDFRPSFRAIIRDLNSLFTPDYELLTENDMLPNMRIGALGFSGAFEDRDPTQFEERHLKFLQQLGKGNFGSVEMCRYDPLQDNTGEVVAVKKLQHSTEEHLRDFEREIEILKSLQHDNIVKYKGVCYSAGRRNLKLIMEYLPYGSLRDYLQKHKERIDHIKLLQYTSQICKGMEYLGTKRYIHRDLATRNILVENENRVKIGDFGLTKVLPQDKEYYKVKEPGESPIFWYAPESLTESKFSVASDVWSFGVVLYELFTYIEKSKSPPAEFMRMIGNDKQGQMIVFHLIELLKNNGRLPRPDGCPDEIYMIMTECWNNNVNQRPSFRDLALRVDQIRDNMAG

Fes = Fes (UniProt P07332); assay: as above
Sequence of Fes (P07332 whole entry, looked up): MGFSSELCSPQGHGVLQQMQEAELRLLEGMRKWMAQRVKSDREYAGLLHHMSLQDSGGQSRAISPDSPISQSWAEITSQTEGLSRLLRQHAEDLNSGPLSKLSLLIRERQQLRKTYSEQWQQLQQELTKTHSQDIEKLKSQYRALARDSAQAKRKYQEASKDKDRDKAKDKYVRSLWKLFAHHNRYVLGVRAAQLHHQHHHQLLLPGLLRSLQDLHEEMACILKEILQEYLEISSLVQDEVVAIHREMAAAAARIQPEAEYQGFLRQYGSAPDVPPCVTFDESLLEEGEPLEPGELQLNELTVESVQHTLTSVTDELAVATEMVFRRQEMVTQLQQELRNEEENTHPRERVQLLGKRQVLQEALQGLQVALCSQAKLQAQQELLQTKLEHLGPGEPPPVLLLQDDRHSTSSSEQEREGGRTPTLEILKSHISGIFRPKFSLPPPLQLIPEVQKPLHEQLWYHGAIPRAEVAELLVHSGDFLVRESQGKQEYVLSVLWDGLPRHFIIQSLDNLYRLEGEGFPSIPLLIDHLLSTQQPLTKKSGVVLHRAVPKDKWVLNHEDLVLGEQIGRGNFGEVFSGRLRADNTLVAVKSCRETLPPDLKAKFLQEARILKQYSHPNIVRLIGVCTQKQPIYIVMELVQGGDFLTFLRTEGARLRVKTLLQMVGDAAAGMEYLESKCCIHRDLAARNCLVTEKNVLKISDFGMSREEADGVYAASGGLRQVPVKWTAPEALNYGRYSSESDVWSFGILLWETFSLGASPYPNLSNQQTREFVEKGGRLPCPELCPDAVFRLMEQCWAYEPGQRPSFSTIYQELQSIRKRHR

Hck = Hck (UniProt P08631); assay: as above
c-Abl (mouse) = assay: as above
FGFR1 = FGFR1 (UniProt P11362); assay: as above
Sequence of FGFR1 (P11362 whole entry, looked up): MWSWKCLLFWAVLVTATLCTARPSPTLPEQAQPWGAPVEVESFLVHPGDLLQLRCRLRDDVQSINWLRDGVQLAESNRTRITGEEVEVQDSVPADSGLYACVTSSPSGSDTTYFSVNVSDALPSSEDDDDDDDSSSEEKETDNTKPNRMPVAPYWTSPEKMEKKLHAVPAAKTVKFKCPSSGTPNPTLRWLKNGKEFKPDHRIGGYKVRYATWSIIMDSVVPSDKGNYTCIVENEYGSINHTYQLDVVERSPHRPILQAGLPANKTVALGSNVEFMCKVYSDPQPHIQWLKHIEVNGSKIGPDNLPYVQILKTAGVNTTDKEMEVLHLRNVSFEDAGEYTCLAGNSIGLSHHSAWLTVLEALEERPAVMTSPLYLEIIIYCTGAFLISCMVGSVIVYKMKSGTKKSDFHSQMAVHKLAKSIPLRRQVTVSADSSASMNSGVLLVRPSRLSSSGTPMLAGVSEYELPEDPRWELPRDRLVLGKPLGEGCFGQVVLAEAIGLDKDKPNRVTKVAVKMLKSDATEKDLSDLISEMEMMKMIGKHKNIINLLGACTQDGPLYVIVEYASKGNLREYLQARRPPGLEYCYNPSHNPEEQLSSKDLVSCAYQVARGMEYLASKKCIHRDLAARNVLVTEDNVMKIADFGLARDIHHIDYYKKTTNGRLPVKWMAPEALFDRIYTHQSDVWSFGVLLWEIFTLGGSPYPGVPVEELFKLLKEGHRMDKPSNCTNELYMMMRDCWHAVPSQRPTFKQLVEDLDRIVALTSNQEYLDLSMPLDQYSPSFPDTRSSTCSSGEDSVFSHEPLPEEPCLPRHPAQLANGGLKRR

EPHB2 = EPHB2 (UniProt P29323); assay: as above
Sequence of EPHB2 (P29323 whole entry, looked up): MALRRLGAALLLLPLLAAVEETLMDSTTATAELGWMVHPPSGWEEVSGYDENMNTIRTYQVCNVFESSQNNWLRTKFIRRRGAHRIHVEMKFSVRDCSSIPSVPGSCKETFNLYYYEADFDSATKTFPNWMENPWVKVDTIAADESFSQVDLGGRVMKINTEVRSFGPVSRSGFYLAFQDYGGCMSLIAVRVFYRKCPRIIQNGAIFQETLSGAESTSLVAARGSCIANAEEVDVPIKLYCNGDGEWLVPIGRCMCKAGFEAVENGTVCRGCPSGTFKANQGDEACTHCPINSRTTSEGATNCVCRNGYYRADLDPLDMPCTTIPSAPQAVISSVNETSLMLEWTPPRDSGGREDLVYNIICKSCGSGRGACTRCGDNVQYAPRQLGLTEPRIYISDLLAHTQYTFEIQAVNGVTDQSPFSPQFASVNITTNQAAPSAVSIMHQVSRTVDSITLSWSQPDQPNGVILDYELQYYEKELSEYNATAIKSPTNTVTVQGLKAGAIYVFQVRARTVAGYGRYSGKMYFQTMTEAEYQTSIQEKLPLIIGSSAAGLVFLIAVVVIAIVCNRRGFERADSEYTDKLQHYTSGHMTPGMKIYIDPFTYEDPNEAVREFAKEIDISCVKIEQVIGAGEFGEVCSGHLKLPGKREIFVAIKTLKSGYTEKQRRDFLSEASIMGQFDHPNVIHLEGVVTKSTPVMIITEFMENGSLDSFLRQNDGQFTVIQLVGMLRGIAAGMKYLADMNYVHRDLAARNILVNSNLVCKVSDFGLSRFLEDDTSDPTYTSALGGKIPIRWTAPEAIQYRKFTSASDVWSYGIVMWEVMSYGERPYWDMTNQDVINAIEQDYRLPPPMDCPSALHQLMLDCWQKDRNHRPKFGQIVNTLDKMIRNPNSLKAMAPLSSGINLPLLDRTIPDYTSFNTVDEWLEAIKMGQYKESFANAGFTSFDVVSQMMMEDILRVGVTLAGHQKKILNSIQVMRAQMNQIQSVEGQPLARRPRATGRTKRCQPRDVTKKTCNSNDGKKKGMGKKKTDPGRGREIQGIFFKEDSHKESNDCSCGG

Fer (mouse) = assay: as above
Grb2 SH2 = Grb2 SH2 (UniProt P62993); assay: SH2 binding enrichment of the phosphorylated peptide, bacterial display (enrichment ratio); higher = better substrate or ligand; peptides without Tyr show the background
SHP2-C SH2 = assay: as above
c-Src SH2 = assay: as above
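Wherever SH2 binding enrichment of the phosphorylated peptide, bacterial display is given: peptide library displayed on the E. coli surface as eCPX fusions, selected cells deep-sequenced, score is each peptide's frequency after selection divided by its frequency in the input.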
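Wherever phosphorylation enrichment, bacterial display is given: 11-residue human phosphosite peptides and single-mutation variants displayed on the E. coli surface, counted by deep sequencing, each peptide's frequency after selection divided by its frequency in the unselected input library; frequency after pTyr selection over input frequency; kinase dosed for 20-30% of maximal phosphorylation in three min.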

Row | SH2 binding enrichment (Grb2 SH2) | SH2 binding enrichment (SHP2-C SH2) | SH2 binding enrichment (c-Src SH2) | Sequence | phosphorylation enrichment (Fyn) | phosphorylation enrichment (AncSZ) | phosphorylation enrichment (FGFR3) | phosphorylation enrichment (MERTK) | phosphorylation enrichment (c-Src) | phosphorylation enrichment (EPHB1) | phosphorylation enrichment (Jak2) | phosphorylation enrichment (Fes) | phosphorylation enrichment (Hck) | phosphorylation enrichment (c-Abl (mouse)) | phosphorylation enrichment (FGFR1) | phosphorylation enrichment (EPHB2) | phosphorylation enrichment (Fer (mouse))
1 | 0.862 | 0.645 | 0.46 | PLGVPYLDKPP [JMJD7_Y31_A28G] | 0.679 | 0.955 | 0.825 | 0.942 | 0.909 | 0.901 | 1.55 | 1.64 | 0.463 | 1.57 | 0.6 | 0.794 | 0.574
2 | 0.676 | 0.636 | 0.435 | NAMRRHIEEFQ [MNS1_Y244_Y244H] | 0.367 | 0.634 | 0.497 | 0.469 | 0.347 | 0.398 | 0.672 | 0.741 | 0.366 | 0.628 | 0.348 | 0.411 | 0.346
3 | 0.854 | 0.957 | 6.7 | ISTAGYSFPEL [EDAR_Y406_I408F] | 0.437 | 0.886 | 0.532 | 0.698 | 0.487 | 0.526 | 1.03 | 0.878 | 0.461 | 0.737 | 0.457 | 0.523 | 0.425
4 | 0.574 | 0.602 | 0.736 | LTECGYSFTTT [ACTB_Y198_R196C] | 0.582 | 1.09 | 0.754 | 0.417 | 0.671 | 0.592 | 0.889 | 1.15 | 0.555 | 0.708 | 0.674 | 0.781 | 0.733
5 | 0.837 | 0.748 | 0.55 | PVGDVYKKKGL [NMNAT1_Y55_A54V] | 0.465 | 0.534 | 0.915 | 0.491 | 0.488 | 0.451 | 0.405 | 0.557 | 0.646 | 0.417 | 0.498 | 0.567 | 0.487
6 | 0.641 | 0.709 | 0.75 | PLGPLYASSNP [INSR_Y992] | 1.27 | 0.96 | 0.742 | 1.49 | 1.35 | 1.14 | 0.941 | 1.65 | 4.49 | 1.47 | 0.683 | 1.01 | 1.82
7 | 1.09 | 0.963 | 0.781 | GQLIFYAPPEW [CNTN6_Y315] | 0.576 | 1.39 | 0.731 | 3.46 | 0.822 | 0.938 | 1.5 | 1.18 | 0.829 | 2.95 | 0.513 | 3.08 | 2.04
8 | 0.816 | 2.39 | 1.97 | QDRTFYESVRT [SPEN_Y633_YF] | 1.21 | 1.1 | 0.686 | 1.04 | 1.29 | 0.74 | 0.564 | 1.04 | 2.43 | 0.717 | 0.529 | 0.579 | 8.88
